Data reported in the RNAGym collection of RNA variant scans (doi:10.7554/elife.80360).

B1: Hammerhead Ribozyme (parent)
chain: ACCGGAUGUGCUUUCCGGUCUGAUGAGUCCGUGAGGACGAAACAG

Variants of: B1
Experiment: self-cleavage, relative activity (ratio to wild type); higher = more cleavage; co-transcriptional

Variant | self-cleavage
U32G G35A | 0.473
U7A C20A | 0.298
U7A C20U | 0.345
U7A C20G | 0.376
C2A A34U | 0.402
C11U G22U | 0.341
G10A G25U | 0.345
C38G A40U | 0.301
C29G C38A | 0.458
A23U A41C | 0.33
C2G C15A | 0.302
G5C U13C | 0.681
C16G | 1.02
G22U G31U | 0.318
G5C C20G | 0.265
A34G G35A | 0.675
C3A G5U | 0.28
A34U A44U | 0.437
C20U C29G | 0.378
U32A C38A | 0.681
G10A U32G | 0.936
C30G G39A | 0.26
A6C G39C | 0.368
G10A A23U | 0.33

Variant | self-cleavage
U21C A42G | 0.323
G27C G36A | 0.392
A42G G45C | 0.31
A23G A37G | 0.314
C3G U28G | 0.356
G10C G17A | 0.926
A26U G45C | 0.362
U24G C43U | 0.463
U24G C43G | 0.337
G4C G18C | 0.251
G17U C38A | 0.465
G17U C38G | 0.539
G4C G5C | 0.327
G5U U14C | 0.837
G25U G35U | 0.326
C3G C38G | 0.279
G18A G27U | 0.393
C3U U28G | 0.505
G4A C30G | 0.368
C3U A23U | 0.347
C11G G18U | 0.725
G5C A40C | 0.325
G22A C29U | 0.279
A34G | 0.902

Variant | self-cleavage
G17C G22U | 0.284
C3U G39A | 0.309
C3U G39C | 0.462
U13G U19C | 0.767
A1U C38A | 0.528
G10U G36U | 0.587
U13G G33U | 0.801
U7C G25A | 0.402
U7C G25U | 0.312
G5U C30G | 0.445
C15A C29G | 0.486
U32G A42C | 0.275
U7G A40G | 0.291
U21A U28G | 0.392
G5A A26U | 0.66
U9A C38G | 0.682
G5U G39A | 0.339
U9C U14C | 0.518
G10U A42G | 0.344
C3G G33A | 0.577
U24A C30G | 1.04
U13A C30G | 0.947
C11G G17U | 0.589
G4A U12A | 0.589

Variant | self-cleavage
C30G C38U | 0.797
C2G U9A | 0.367
G17C A44U | 0.414
G35A C38G | 0.387
G5U C15G | 1.15
A6C A40U | 0.37
U24C G27U | 0.335
G27A C30A | 0.529
U21C G36C | 0.366
G18C C38U | 0.453
G10A A34G | 0.836
U13C G36U | 0.598
C2A U21G | 0.291
G10C G27C | 0.994
C11U A40G | 0.342
G8U G18C | 0.513
G17C A42U | 0.284
C2A A40C | 0.353
C11G C15G | 0.88
U9C G18U | 0.738
C2G C11U | 0.32
G22C C29A | 0.296
U9C G22A | 0.34
G4U A23C | 0.257

Variant | self-cleavage
G36C A37G | 0.748
U14C A44G | 1.24
C16G C38U | 0.619
G27A G31A | 0.61
U28C C29A | 0.688
C11G A23U | 0.41
U12G U21G | 0.334
U12G U21A | 0.455
C16A U21G | 0.316
G8U A42G | 0.367
U9G G17U | 0.316
U28A A42C | 0.335
G4C C11U | 0.331
C2A A23U | 0.33
U12A G31C | 0.801
U19G A34C | 0.349
U13C A44C | 0.491
A6G G45U | 0.597
G17A G31U | 0.788
U9C A23G | 0.361
U24A A37U | 0.771
G25U C30G | 0.291
G10A C16U | 0.971
G35A A37U | 0.414

Variant | self-cleavage
A1U A44C | 0.574
A23C G31A | 0.68
C20A A23C | 0.353
U7C U21G | 0.449
U7C U19C | 0.526
C15U A40C | 0.385
U7A G25C | 0.279
A6G U19A | 0.278
G31A | 1.03
U13A | 1.31
C16U G27U | 0.551
U28G G39A | 0.411
G33C | 0.997
G17A C29G | 0.462
U7C G45A | 0.653
G10C U14A | 0.796
U9C U13C | 0.843
C15G C38A | 0.446
G27U G45C | 0.365
G18C A40G | 0.369
U7G G25U | 0.333
A6U U7A | 0.609
U14C C20U | 0.457
G18U G31U | 0.781

Variant | self-cleavage
C38G A41U | 0.316
C16U G22A | 0.386
G25C C38U | 0.22
U7G C43G | 0.427
G22A G36A | 0.361
G4A C16U | 0.781
C2G A42G | 0.273
U9C A44C | 0.493
C43G | 0.406
U21A G45C | 0.335
U7A G8U | 1.52
G27C U28G | 0.389
G27C U28C | 0.431
U24G G31U | 1.13
C3U C15U | 0.984
A23C G27C | 0.328
U7G G45U | 0.526
C2A A42G | 0.344
C29U A40C | 0.51
C30A G39U | 0.418
C3G U13C | 0.655
U28A C30A | 0.376
A1C G39U | 0.341
U32G A40U | 0.39

Variant | self-cleavage
A44C G45A | 0.932
G18U G33C | 0.602
U14A C15U | 0.994
G4U C29A | 0.265
A26G G36U | 0.412
G5U G35U | 0.516
C11U C30U | 0.736
C15U G25C | 0.314
U14A C29G | 0.562
G17A A26C | 0.272
G4U C16G | 1.09
U9G G25U | 0.242
C11A C29U | 1.08
C30A C38U | 0.743
C3A U24G | 0.574
U21C A34C | 0.316
C3U G25A | 0.368
U24G A40G | 0.392
G22U A41U | 0.353
C20G A37G | 0.3
G5A U12C | 1.07
U9G U24A | 0.928
G17U A26U | 0.527
G17U A26C | 0.448

Variant | self-cleavage
U7A U13A | 1.42
A6U A34C | 0.651
C30G G31C | 0.926
G4A G31A | 0.641
G17C U32G | 0.545
U13A G27U | 0.53
G18C A34U | 0.409
G18C A34G | 0.422
U14C U28G | 0.544
U9C C30U | 0.709
U12A G33A | 1.08
C3U U32C | 0.962
U9A A42U | 0.332
U9A A42C | 0.32
U21G U24G | 0.536
U21G U24A | 0.814
U14C A26U | 0.444
A41C C43U | 0.316
U24A G25U | 0.282
U19A A42U | 0.378
C16G G25U | 0.384
A1G A41G | 0.436
U7C C11G | 1.37
G4U A34G | 0.452

Variant | self-cleavage
G4U A41C | 0.276
C2U A26G | 0.34
G36C A41U | 0.294
A41U C43G | 0.332
A1U G4U | 0.309
G5U A26G | 0.332
G31U A40G | 0.382
G5C C16U | 0.883
C11A A44U | 0.666
A26C A34G | 0.349
C16A G33C | 1.24
U12G C20A | 0.332
C15A G27A | 0.589
G33A A41G | 0.384
C38G | 0.767
C11A U12A | 0.977
C2A A26U | 0.374
U32C G45U | 0.635
U14C A37G | 0.945
G25U U32C | 0.268
A1U G39A | 0.349
A42G C43G | 0.308
C3G A34U | 0.389
C2A C43G | 0.338

Variant | self-cleavage
U14G C30U | 0.552
C3G G31U | 0.609
G17A U32C | 0.812
G4A C38U | 0.453
C11G G27A | 0.839
U21C G33C | 0.756
U21C G33U | 0.795
C11A C30G | 0.955
A26G G33U | 0.344
C15A | 0.93
C20G A26U | 0.29
A23G A26C | 0.263
U12G U32G | 0.813
C38A A41G | 0.338
A23G G36U | 0.403
G31U G36C | 0.568
G4A A23C | 0.337
U21C A40C | 0.393
C20U G35A | 0.412
G39U A41C | 0.368
U13A C29U | 0.941
G17C A34C | 0.438
G17U C43A | 0.356
G17U C43G | 0.291

Variant | self-cleavage
C11A A40G | 0.346
G8C U32A | 1.28
A1G C3G | 0.586
U9A C16U | 1.11
C3G G27U | 0.265
C11G U12C | 1.07
G31A C38G | 0.592
C16U U32A | 1.02
U12G A41U | 0.298
U32C C38G | 0.691
U32C C38U | 0.726
G5C G33A | 0.776
U14C G33C | 0.851
G5U A44G | 0.918
C16A G17C | 0.386
C15A C38U | 0.814
U12A C38A | 0.807
U12C C15U | 0.974
C29G A34G | 0.446
G25A G31A | 0.347
G33U A34C | 0.895
G17U G35C | 0.405
G8C G39U | 0.441
G33C A37G | 0.619

Variant | self-cleavage
G5A U32A | 1.32
U7G A44G | 1.82
U9A G10C | 1
U14C C29A | 0.461
G8A G36U | 0.5
G17A G25C | 0.321
G27U A34U | 0.382
U9C G17C | 0.354
G10C U12G | 1.09
G25C G45A | 0.302
C11G C29G | 0.82
C16A U28G | 0.638
G27C C43G | 0.26
G33C C43U | 0.308
A1G C43U | 0.597
A37U A40C | 0.472
C30G C43U | 0.276
U28G A42G | 0.264
A1C G5C | 0.286
G27U U32A | 0.547
C15G A41G | 0.431
U28C G33A | 1.16
U7G G10U | 1.46
C29A A34U | 0.563

Variant | self-cleavage
C15U G35A | 0.756
C15U G35U | 0.701
C11U G31A | 1.13
C3U U14A | 0.71
A1G A23G | 0.413
G5A C20A | 0.415
U7G A34U | 1.53
U7G A34C | 1.44
C29G A44C | 0.35
U19C G31A | 0.967
C15G A23G | 0.32
U28A A37G | 0.325
C15G G22C | 0.331
G5C G27C | 0.354
G31C A37G | 0.968
C16A C29A | 0.417
A1G U32G | 1.45
G4U G22U | 0.296
G33U A37U | 0.972
C3G A44C | 0.374
G22U A44C | 0.432
U28A A40C | 0.352
